Measured values taken from paper doi:10.1101/163188.

Experiments:
[1] = tested on: TePif1 (Thermotoga elfii (Pseudothermotoga elfii)); test: EMSA
[2] = tested on: TePif1-4x (Thermotoga elfii (Pseudothermotoga elfii)); test: EMSA

| Substance | Kd [1] [nM] | further results |
| --- | --- | --- |
| 3' tail | – | binding signal [1]: > 20 % bound |
| 5' tail | 4.53 | – |
| Fork | 4.4 | – |
| TTTTTTTTTTTTTTTTTTTTTTTTTTTTTTTTTTTTTTTTTTTTTTTTTT [poly(dT) 50mer] | – | binding signal [2]: 5 % bound |
| ssDNA 45-nt | 0.93 | – |
